The target in test [1] is human MASP-2 (protein in human serum or plasma) (human).
Test [2] has as its target human MASP-1 (protein in human serum) (human).

human MASP-1 (protein in human serum) (human), sequence (chain, as listed by the source): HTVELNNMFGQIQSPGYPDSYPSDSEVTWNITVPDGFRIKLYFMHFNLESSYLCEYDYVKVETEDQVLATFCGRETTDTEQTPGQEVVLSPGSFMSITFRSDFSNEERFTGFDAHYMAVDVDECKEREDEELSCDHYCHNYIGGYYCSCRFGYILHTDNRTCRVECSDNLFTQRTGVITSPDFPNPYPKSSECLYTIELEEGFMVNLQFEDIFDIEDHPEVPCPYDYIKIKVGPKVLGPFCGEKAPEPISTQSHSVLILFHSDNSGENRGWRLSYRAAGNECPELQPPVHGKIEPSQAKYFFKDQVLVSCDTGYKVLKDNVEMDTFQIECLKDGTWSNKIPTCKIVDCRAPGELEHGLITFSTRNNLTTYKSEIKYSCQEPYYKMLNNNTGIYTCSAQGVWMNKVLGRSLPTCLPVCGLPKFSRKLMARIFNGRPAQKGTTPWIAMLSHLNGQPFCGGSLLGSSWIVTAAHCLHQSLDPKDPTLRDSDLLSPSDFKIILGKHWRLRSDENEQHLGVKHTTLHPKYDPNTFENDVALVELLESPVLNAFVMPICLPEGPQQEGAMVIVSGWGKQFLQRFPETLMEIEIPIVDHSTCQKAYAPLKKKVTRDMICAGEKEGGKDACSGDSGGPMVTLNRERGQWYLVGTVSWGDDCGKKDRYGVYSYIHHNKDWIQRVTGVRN

The substance “SGMI-2Fc (mature polypeptide fusion comprising SGMI-2, linker #1 and human IgG1-Fc) (Fc fusion)” displayed a C3b deposition from 1% normal human serum on mannan-coated wells (IC50) in test [1] of 300 nM.

Regarding “SGMI-1Fc (mature polypeptide fusion comprising SGMI-1, linker #1 and human IgG1-Fc) (Fc fusion)”, the C3b deposition from 1% normal human serum on mannan-coated wells (IC50) in test [2] was 27 nM.

These data come from patent US20220259325A1.
